Here are results for 1 molecule from US10487307B2, “Culture method for pluripotent stem cells” (FUJIFILM CORPORATION, priority 2013, dated 2019).

Data set [1] is described as follows: Evaluation of adsorbability with respect to cell culture surface (OPA fluorescence). The conditions noted are these: FIG. 1; 0 to 200 pmol/cm^2 added, 2 hours at 37° C., washed twice with PBS. The data set is classed as physicochemical. As for the experimental part:
Each of the polypeptides of RCP-1 to RCP-11 and RCP-21 to RCP-26 obtained as above was diluted with a predetermined buffer such that they could be added to wells at a predetermined final concentration of 0 pmol/cm^2 to 200 pmol/cm^2. Thereafter, each of the polypeptides was added in an amount of 64 μL to a plasma-treated 96-well plate made of polystyrene (Tissue Culture-Treated, Falcon). Each of the polypeptides was allowed to adsorb onto the plate by being incubated for 2 hours at 37° C., and then the wells were washed twice with PBS, thereby obtaining surfaces coated with each of the polypeptides of RCP-1 to RCP-11 and RCP-21 to RCP-26.
Among the surfaces coated with each of the polypeptides obtained as above, the surfaces coated with RCP-1 and RCP-21 to RCP-26 were applied with 64 μL of a borate buffer and 64 μL of 1 N NaOH, followed by incubation for 24 hours at 80° C. and 100% humidity. After the resultant was air-cooled, 75 μL of a borate buffer was added to each well, and 50 μL of a reaction solution obtained by mixing OPA (o-phthalaldehyde: Wako Pure Chemical Industries, Ltd./methanol solution (160 mg/ml)) with N-acetyl-L-cysteine (NAC: Wako Pure Chemical Industries, Ltd.)/borate buffer solution (2 mg/ml) at a ratio of 1:100 (mass ratio) was further added thereto. After incubation for 30 minutes at 40° C., the fluorescence intensity thereof was measured by using an Envision Multilabel Counter (PerkinElmer Inc.) (excitation 355 nm/fluorescence 486 nm). A calibration curve was separately prepared from each of the polypeptide solutions so as to calculate the amount of the polypeptide adsorbed. In FIG. 1, a black rhombus indicates RCP-1, a black square indicates RCP-21, a black triangle indicates RCP-22, a black circle indicates RCP-23, a white rhombus indicates RCP-24, a white square indicates RCP-25, and a white triangle indicates RCP-26.

In a further data set the test system is iPS cells. As to the kind of experiment: Growth evaluation, growth curves over 8 days. The data set is classed as cell-based, human. As to the method:
The iPS cells collected in the same manner as in <Cell adhesiveness evaluation 1> were seeded into a 96-well plate, onto which RCP-1, RCP-21, and natural human vitronectin were adsorbed, at a ratio of 250 cells/well and cultured for 8 days in a 5% CO2 incubator at 37° C. The number of adhesive cells after different days of culture was measured in the same manner as in <Cell adhesiveness evaluation 1>, thereby obtaining growth curves. […] In FIG. 2, a black rhombus indicates a case using RCP-1, and a black square indicates a case using RCP-21.
From the increase and decrease in the obtained number of cells, the doubling time was calculated. As a result, it was confirmed that it takes 46.4±2.1 hours for the number of cells to be doubled in a case where RCP-1 is used, and 67.7±2.1 hours in a case where RCP-21 is used.

B1: RCP-1: recombinant polypeptide for culture, SEQ ID NO: 15; human vitronectin positions 1-55 and 269-459 with N-terminal methionine (protein)
chain: MDQESCKGRCTEGFNVDKKCQCDELCSYYQSCCTDYTAECKPQVTRGDVFTMPEDEPSQEECEGSSLSAVFEHFAMMQRDSWEDIFELLFWGRTSAGTRQPQFISRDWHGVPGQVDAAMAGRIYISGMAPRPSLAKKQRFRHRNRKGYRSQRGHSRGRNQNSRRPSRATWLSLFSSEESNLGANNYDDYRMDWLVPATCEPIQSVFFFSGDKYYRVNLRTRRVDTVDPPYPRSIAQYWLGCPAPGHL
modifications: Vitronectin-derived Recombinant Protein (RCP-1)
As for B1, the “adsorbability with respect to the plate” value in data set [1] is reported as “excellent adsorbability”. This molecule also had a doubling time in the data set on iPS cells (250 cells/well, cultured for 8 days) of 46.4 ± 2.1 h. The “cell growth properties” value with iPS cells (FIG. 2) was “higher cell growth properties compared to RCP-21”.
